The record followed here is the DeepSol protein solubility set.

The series in a line: soluble on expression in E. coli; label from the status in PepcDB or PDB records.
Take “MGSDKIHHHHHHMSQILLIHSSVHGYTQKICEYLQRQLIEQDQLVTVASLAEAPDLALFDKVYIGASIRHGKHRPALYQFIEDHRAELDNKPSGFFSVSLVARKPNKNTPQTNSYMQQFLSQSPWQPKLLQVFGGNLDYQGYGAMDRNIIRFIMWLTKGPTDPNTKVEFTDWQKVDEFAQQIIEA”: the “soluble on expression in E. coli” value is on record as “not soluble”.

For “MGSDKIHHHHHHLAQLYFYYSAMNAGKSTSLLQSSYNYRERGMNTLVLTAAIDDRYGVGKVASRIGIQADATVFGSEDNLMDLIATHHSQQQLHCVLVDESQFLSKTQVRQLTDVVDKLDIPVLCYGLRSDFRGELFIGSQYLLAWADKLVELKTICFCGRKANMVVRRDGAGNPVRDGAQVAIGGNESYESMCRKHFSELVWD”, the “soluble on expression in E. coli” value is listed as “not soluble”.

For “MVKETHRFETFTEEPIRLIGEEGEWLGDFPLDLEGEKLRRLYRDMLAARMLDERYTILIRTGKTSFIAPAAGHEAAQVAIAHAIRPGFDWVFPYYRDHGLALALGIPLKELLGQMLATKADPNKGRQMPEHPGSKALNFFTVASPIASHVPPAAGAAISMKLLRTGQVAVCTFGDGATSEGDWYAGINFAAVQGAPAVFIAENNFYAISVDYRHQTHSPTIADKAHAFGIPGYLVDGMDVLASYYVVKEAVERARRGEGPSLVELRVYRYGPHSSADDDSRYRPKEEVAFWRKKDPIPRFRRFLEARGLWNEEWEEDVREEIRAELERGLKEAEEAGPVPPEWMFEDVFAEKPWHLLRQEALLKEEL”, the “soluble on expression in E. coli” value is given as “soluble”.

For “MGSDKIHHHHHHMHFSKEHINALETRTRAHFINSLSGFKSANLIGTQDRQGNTNLSIVSSVIHLGANPPLMGMIIRPHSVPRHTFENIMQTGLYTINHVNQSIYEQAHQTSARYDKDESEFEATGLTPEYLSDFCAPFVKESRLKYSVKLVEHQHLAINGTEFVIGEIVDVYVDDNAVQTDGFIDLQAIDTVAISGLDCYYTGDKLARLPYAKK”, the “soluble on expression in E. coli” value is listed as “not soluble”.

Consider “MKKILLCCSAGMSTSMLVKKMQQAAESKGIECKIDALSVNAFEEAIQEYDVCLLGPQVRFQLEELRKTADEYGKNIAAISPQAYGMMKGDEVLQQALDLIN”, for which the “soluble on expression in E. coli” value is “not soluble”.

Turning to “MGSDKIHHHHHHAQTPQDSVRFIGYLPVRHTDPTKWITRYQSEIDRYQTENQMLKDTSCDVLFLGSSSINLWDNIYRDMAPLKILRRSYGGAALRDMLYNYDVIARGYHPRSIVIYVENDLAGTPEDLTVGETFDFFRLLTNRLQRDYPDIPIFILSYKPSLARKEMIPKHEIINALLQEYASKRGGLTYIDVASCLYDNNGKLRKDIFKQDGLHMNQNGYDLWTAILKPKILESIR”, the “soluble on expression in E. coli” value is listed as “not soluble”.

In the case of “MTNFIDRRLNSKNKSTVNRQRFLRRYKNQIKKSVSDAINQRGVTDIDSGESIVIPNRDLSEPTFHQGDGGVKDRVHPGNDQFSTGDRIPRPPKQQGQGGGQGDASDSGEGEDDFTFSISKEEYLNLLFEDLELPNLERNQLDKLIEYKTVRSGFCAEGVASNIDIVKSLQGSIARRIAMTASKRKQIKVLELELQALNNDKHDNIQRKRDLIAEIETLKNKISKVPFIDTFDLRFRNYAKQAVPTSKAVMFCLMDVSGSMDQATKEMAKRFYILLYLFLSRTYKNIDVVYIRHHTQAKEVDEHEFFYSQETGGTIASSALELMNDIITERYNDNQWNIYGAQASDGDNWADDSPRCQALLEQQILPKSRYFSYIEITQRAHQTLWKHYQQVEESHTNFAMQHIKSVADIYPVFRKFFKKNTKSAALEHHHHHH”, the “soluble on expression in E. coli” value was “soluble”.

For the sequence “MIIAREKRRNNIAEYVLYMWQIEDLIRANELDMQRLRATVIAQYRQDTETTAEIDRWYAELVEMMLTEGVREQGHINIVRIAIMQMEEIHSRLMADPKEMIYQGLYYQVLPAIVQLRAKSAGSNTGEIETCLTAIYGLLTLRLQKKEVSEETLASIKQMSTLLSVLSEKFAAREEGTDEALL”, the “soluble on expression in E. coli” value is reported as “not soluble”.

On to “LYVFDMDETLINADCAMIWNAFLVEKGIATQPNFIEEDQRLMALYAEGKMDMEDYLEFCMAPLADMPIAHVLMLVEECVEHHILPKQFEQSKTLIAQLDRDDIDMVIISASVTFLVEAVGRRLGIPVALGIDLVEKHGSYSAEIAGVPSYREGKVIRLKAWLDAQPESYSEVHFYTDSINDLPLCEYADYAYLVNPCPQLKARAD”, for which the “soluble on expression in E. coli” value was “not soluble”.

On to “MGSDKIHHHHHHMEKILDLLMSFVKEDEGKLDLASFPLRNTTAGAHLLLKTENVVASGIEVSRMFLEKMGLLSKFNVEDGEYLEGTGVIGEIEGNTYKLLVAERTLLNVLSVMFSVATTTRRFAEKLKHAKIAATRKILPGLGVLQKIAVVHGGGDPHRLDLSGCVMIKDNHLKMYGSAERAVQEVRKIIPFTTKIEVEVENLEDALRAVEAGADIVMLDNLSPEEVKDISRRIKDINPNVIVEVSGGITEENVSLYDFETVDVISSSRLTLQEVFVDLSLEIQR”, for which the “soluble on expression in E. coli” value is “soluble”.

As to “MAHHHHHHMASVSSGVPLTAPSAQKLLQSVKYILLDVDGVVWSGPRVLPNIPQTLQYLRSLGKEIRFLTNNASVSRSSLAQLFRQRGIEGVKESEVYNSGYAAALRLRRICGAAEGNQERQEGNEPTSDKRLVRGNVFVIGEEGLHEELQRVLAPGYITYGMELHDAEKVGGYNSANAATAWKERILPAPLRQLKPPDGITDYGRGISLTDLSPVAVVVGLDLHFNMLKLAYASLCLHRGAGSNTDSEGDRIGGDRDRTPDKGLQKPVCFIATNEDPQIPIGEEGLLLPGAGGMVSALRTVSGRNPDAVCGKPHVDMARIMFEAEGITDARQCLMVGDRLTTDIAFGNAAGCRTLFVLSGAESMADIARAKSTGDSQLLPEFVAPSLASLMPDARDD”, the “soluble on expression in E. coli” value was “soluble”.

With “MSQNLFNVEDYRKLAQKRLPKMVYDYLEGGAEDEYGVKHNRDVFQQWRFKPKRLVDVSRRSLQAEVLGKRQSMPLLIGPTALNGALWPKGDLALARAATKAGIPFVLSTASNMSIEDLARQCDGDLWFQLYVIHREIAQGMVLKALHTGYTTLVLTTDVAVNGYRERDLHNRFKIPPFLTLKNFEGIDLGKMDKANLEMQAALMSRQMDASFNWEALRWLRDLWPHKLLVKGLLSAEDADRCIAEGADGVILSNHGGRQLDCAISPMEVLAQSVAKTGKPVLIDSGFRRGSDIVKALALGAEAVLLGRATLYGLAARGETGVDEVLTLLKADIDRTLAQIGCPDITSLSPDYLQNEGVTNTAPVDHLIGKGTHAHHHHHH”, the “soluble on expression in E. coli” value is “soluble”.

On to “MAHHHHHHMPPSNVRKEEAELRQIAKQARLARKEVQQRERKQRQRERRAAAKNGEAATAAQQTAASSAMRTRGAIILPDEVQELRQRLMGDDAASAASAADSPARKTKKAAARKAARSPAKKSAGAAGASNHGAASSSTLVPTYHQEVHFKKKMFFVDVVLHHVPHQKIDISETNTNRLVVDTCGHTKKYRLVLPYPKGMLCDAAAATYEFENGILQCRLPIMDGAIPASLEAENAKMIEKMRQQRALRFRVTRDGDLTVRTRQALLTQAPAAQAALPEAKKAAAAQRGDDTDSDNEVVNAQAREAKGTEKMASPKSRKRTRDGDEEDSKETPQQTRSVSAKKAKGAAAAVNTLPTEAATASKPAAKKSKPDVFEAEHAKVMEAAKAAAAKVHLSMRERVKLAKAVQASREERLQTRSLRKERKEEQKQQSFHRILEEQKRQLLARASMQQPAPSPTAKVNASAKAVHFADE”, for which the “soluble on expression in E. coli” value was “soluble”.

Regarding “SGTVHARSLEPLPSSGPDFGGLGEEAEFVEVEPEAKQEILENKDVVVQHVHFDGLGRTKDDIIICEIGDVFKAKNLIEVMRKSHEAREKLLRLGIFRQVDVLIDTCQGDDALPNGLDVTFEVTELRRLTGSYNTMVGNNEGSMVLGLKLPNLLGRAEKVTFQFSYGTKETSYGLSFFKPRPGNFERNFSVNLYKVTGQFPWSSLRETDRGMSAEYSFPIWKTSHTVKWEGVWRELGCLSRTASFAVRKESGHSLKSSLSHAMVIDSRNSSILPRRGALLKVNQELAGYTGGDVSFIKEDFELQLNKQLIFDSVFSASFWGGMLVPIGDKPSSIADRFYLGGPTSVRGFSMHSIGPQSEGDYLGGEAYWAGGLHLYTPLPFRPGQGGFGELFRTHFFLNAGNLCNLNYGEGPKAHIRKLAECIRWSYGAGIVLRLGNIARLELNYCVPMGVQTGDRICDGVQFGAGIRFL”, the “soluble on expression in E. coli” value is reported as “soluble”.

For “MLMFTEKEFAAFEVAGLDERMAVIRAQIQPIFQELDTYFAEQLAPELGTELFVHIAQHRRRTVYPPENTWSALSPNKRGYKMQPHFQLGIWGDYVFMWLSFIDNPKNEKQIAQAFLENQQLFQALPEDTYVSLDHTVPQITPLPETDLEKALTRFRDVKKGEFEIGRIIPKDSDLWQNPEKARAYMLATYQQLLPLYQLAVAQ”, the “soluble on expression in E. coli” value is given as “not soluble”.
